In patent publication EP4682170A1:

Key:
[1] = target: human CD3 on T cells of human peripheral blood mononuclear cells (human) (UniProt P07766); test: cell-based or functional assay
human CD3εγ (human) = human CD3εγ (human) (UniProt P07766); test: SPR, Biacore T200; human CD3εγ immobilised on CM5 chip, antibody as analyte
human CD3εδ (human) [2] = target: human CD3εδ (human) (UniProt P07766); test: SPR, Biacore T200; ratio between the KD values on CD3εδ and CD3εγ
human CD3εδ (human) [3] = target: human CD3εδ (human) (UniProt P07766); test: SPR, Biacore T200; human CD3εδ immobilised on CM5 chip, antibody as analyte
human CD3εδ (human) [4] = target: human CD3εδ (human) (UniProt P07766); test: SPR, Biacore T200; human CD3εδ immobilised on CM5 chip, antibody as analyte (Example 2-3)

Chain of human CD3 on T cells of human peripheral blood mononuclear cells (human) (P07766 23-207, chain 1 of 3): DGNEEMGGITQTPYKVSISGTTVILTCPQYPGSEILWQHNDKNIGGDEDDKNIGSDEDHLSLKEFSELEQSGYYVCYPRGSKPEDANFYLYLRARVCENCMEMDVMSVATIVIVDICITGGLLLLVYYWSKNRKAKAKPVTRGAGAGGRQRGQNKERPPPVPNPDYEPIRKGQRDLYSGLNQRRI
Chain of human CD3 on T cells of human peripheral blood mononuclear cells (human) (P04234 22-171, chain 2 of 3, further chain): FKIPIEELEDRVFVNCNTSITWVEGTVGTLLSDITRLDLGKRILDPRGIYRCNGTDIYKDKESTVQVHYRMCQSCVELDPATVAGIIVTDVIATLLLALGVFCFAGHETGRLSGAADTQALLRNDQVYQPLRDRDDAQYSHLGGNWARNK
Chain of human CD3 on T cells of human peripheral blood mononuclear cells (human) (P09693 23-182, chain 3 of 3, further chain): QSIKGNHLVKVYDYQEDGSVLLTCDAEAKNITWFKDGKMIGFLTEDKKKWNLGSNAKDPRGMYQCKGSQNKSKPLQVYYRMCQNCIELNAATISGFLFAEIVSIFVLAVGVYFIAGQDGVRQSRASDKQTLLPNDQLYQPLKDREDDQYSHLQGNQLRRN
Chain of human CD3εδ (human) (P07766 23-126, stated change not applied, chain 1 of 2): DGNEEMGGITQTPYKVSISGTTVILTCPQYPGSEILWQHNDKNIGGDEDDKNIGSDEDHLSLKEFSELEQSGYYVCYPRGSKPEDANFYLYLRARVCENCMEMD
Chain of human CD3εδ (human) (P04234 22-105, stated change not applied, chain 2 of 2, further chain): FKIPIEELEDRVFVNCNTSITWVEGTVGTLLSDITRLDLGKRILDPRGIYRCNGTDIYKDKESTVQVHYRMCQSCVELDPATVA
Chain of human CD3εγ (human) (P07766 23-126, chain 1 of 2): as the sequence (P07766 23-126, stated change not applied, chain 1 of 2) above
Chain of human CD3εγ (human) (P09693 23-116, chain 2 of 2, further chain): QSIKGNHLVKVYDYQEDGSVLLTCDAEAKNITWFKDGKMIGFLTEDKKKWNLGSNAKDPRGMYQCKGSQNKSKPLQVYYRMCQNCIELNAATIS

**Q.** Which results are given for CD3 (UCHT1)-binding monoclonal antibody?
**A.** Death of cancer cells, EC50 nM (MDA-MB-231 + human PBMC, 48 h) [1]: 0.0005 nM; Death of cancer cells, Emax (%) [1]: 46%; IFNγ release, EC50 nM [1]: 0.003 nM; IFNγ release, Maximum concentration [1]: 16 ng/mL; T cell activation (CD3+ CD8+ CD69+), human PBMC alone without target cells [1]: 60%; Kd (human CD3εγ (human)): 0.272 nM; ratio of the binding strength to CD3εδ / binding strength to CD3εγ (human CD3εδ (human) [2]): 19.3 fold; Kd (human CD3εδ (human) [3]): 0.0141 nM; Kd (human CD3εδ (human) [4]): 0.0341 nM
